Test results: the supplement of paper PMC11316812
± gives the standard deviation of the averaged measurements.

What was measured:
MCF7 = test: percentage of EdU-negative (G0-arrested) nuclei per well, 72 h; higher = more G0 arrest; conditions: reference: sequence is the full UniProt precursor, the tested protein was the secreted form or ectodomain
hTERT-HMEC = test: as above; conditions: reference: sequence is the full UniProt precursor, the tested protein was the secreted form or ectodomain
[1] = protein concentration 0.03125 µM
[2] = protein concentration 0.3125 µM
[3] = protein concentration 0.0185 µM
[4] = protein concentration 0.0289325 µM
[5] = protein concentration 0.289325 µM
[6] = protein concentration 0.0225 µM
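Note: secreted proteins added to cultured cells, EdU pulse at the end, nuclei found by Hoechst imaging, EdU status from nuclear versus surrounding ring intensity ratio, PBS as neutral control.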

| Sequence | percentage of EdU-negative (MCF7; [6]) [%] | percentage of EdU-negative (MCF7; protein concentration 0.225 µM) [%] | percentage of EdU-negative (hTERT-HMEC; [6]) [%] | percentage of EdU-negative (hTERT-HMEC; protein concentration 0.225 µM) [%] | also measured |
| --- | --- | --- | --- | --- | --- |
| MGPLSAPPCTEHIKWKGLLLTALLLNFWNLPTTAQVMIEAQPPKVSEGKDVLLLVHNLPQNLTGYIWYKGQIRDLYHYITSYVVDGQIIIYGPAYSGRETVYSNASLLIQNVTREDAGSYTLHIIKRGDGTRGVTGYFTFTLYLETPKPSISSSNLNPREAMETVILTCNPETPDASYLWWMNGQSLPMTHRMQLSETNRTLFLFGVTKYTAGPYECEIWNSGSASRSDPVTLNLLHGPDLPRIFPSVTSYYSGENLDLSCFANSNPPAQYSWTINGKFQLSGQKLFIPQITPKHNGLYACSARNSATGEESSTSLTIRVIAPPGLGTFAFNNPT [Q9UQ72] | – | – | – | – | percentage of EdU-negative (MCF7; [1]): 24.9 ± 4.1%; percentage of EdU-negative (MCF7; [2]): 26.7 ± 1.1%; percentage of EdU-negative (hTERT-HMEC; [1]): 4.83 ± 0.7%; percentage of EdU-negative (hTERT-HMEC; [2]): 5.46 ± 1.1% |
| MVTSSFPISVAVFALITLQVGTQDSFIAAVYEHAVILPNKTETPVSQEDALNLMNENIDILETAIKQAAEQGARIIVTPEDALYGWKFTRETVFPYLEDIPDPQVNWIPCQDPHRFGHTPVQARLSCLAKDNSIYVLANLGDKKPCNSRDSTCPPNGYFQYNTNVVYNTEGKLVARYHKYHLYSEPQFNVPEKPELVTFNTAFGRFGIFTCFDIFFYDPGVTLVKDFHVDTILFPTAWMNVLPLLTAIEFHSAWAMGMGVNLLVANTHHVSLNMTGSGIYAPNGPKVYHYDMKTELGKLLLSEVDSHPLSSLAYPTAVNWNAYATTIKPFPVQKNTFRGFISRDGFNFTELFENAGNLTVCQKELCCHLSYRMLQKEENEVYVLGAFTGLHGRRRREYWQVCTLLKCKTTNLTTCGRPVETASTRFEMFSLSGTFGTEYVFPEVLLTEIHLSPGKFEVLKDGRLVNKNGSSGPILTVSLFGRWYTKDSLYSSCGTSNSAITYLLIFILLMIIALQNIVML | – | – | – | – | percentage of EdU-negative (MCF7; [3]): 25.8 ± 0.6%; percentage of EdU-negative (MCF7; protein concentration 0.185 µM): 28.11 ± 0.25%; percentage of EdU-negative (hTERT-HMEC; [3]): 3.63 ± 0.35%; percentage of EdU-negative (hTERT-HMEC; protein concentration 0.185 µM): 6.84 ± 0.58% |
| MGPLPAPSCTQRITWKGLLLTASLLNFWNPPTTAEVTIEAQPPKVSEGKDVLLLVHNLPQNLPGYFWYKGEMTDLYHYIISYIVDGKIIIYGPAYSGRETVYSNASLLIQNVTRKDAGTYTLHIIKRGDETREEIRHFTFTLYLETPKPYISSSNLNPREAMEAVRLICDPETLDASYLWWMNGQSLPVTHRLQLSKTNRTLYLFGVTKYIAGPYECEIRNPVSASRSDPVTLNLLPKLPIPYITINNLNPRENKDVLAFTCEPKSENYTYIWWLNGQSLPVSPGVKRPIENRILILPSVTRNETGPYQCEIRDRYGGLRSNPVILNVLYGPDLPRIYPSFTYYRSGENLDLSCFTESNPPAEYFWTINGKFQQSGQKLFIPQITRNHSGLYACSVHNSATGKEISKSMTVKVSGPCHGDLTESQS | – | – | – | – | percentage of EdU-negative (MCF7; [4]): 25.2 ± 0.61%; percentage of EdU-negative (MCF7; [5]): 26.3 ± 0.9%; percentage of EdU-negative (hTERT-HMEC; [4]): 4.85 ± 0.41%; percentage of EdU-negative (hTERT-HMEC; [5]): 4.97 ± 0.19% |
| MALHIHEACILLLVIPGLVTSAAISHEDYPADEGDQISSNDNLIFDDYRGKGCVDDSGFVYKLGERFFPGHSNCPCVCALDGPVCDQPECPKIHPKCTKVEHNGCCPECKEVKNFCEYHGKNYKILEEFKPSPCEWCRCEPSNEVHCVVADCAVPECVNPVYEPEQCCPVCKNGPNCFAGTTIIPAGIEVKVDECNICHCHNGDWWKPAQCSKRECQGKQTV [B2RUY7] | 26.9 ± 1.9 | 25.9 ± 1.7 | 5.12 ± 0.14 | 5.63 ± 0.95 | – |
| MTTQLPAYVAILLFYVSRASCQDTFTAAVYEHAAILPNATLTPVSREEALALMNRNLDILEGAITSAADQGAHIIVTPEDAIYGWNFNRDSLYPYLEDIPDPEVNWIPCNNRNRFGQTPVQERLSCLAKNNSIYVVANIGDKKPCDTSDPQCPPDGRYQYNTDVVFDSQGKLVARYHKQNLFMGENQFNVPKEPEIVTFNTTFGSFGIFTCFDILFHDPAVTLVKDFHVDTIVFPTAWMNVLPHLSAVEFHSAWAMGMRVNFLASNIHYPSKKMTGSGIYAPNSSRAFHYDMKTEEGKLLLSQLDSHPSHSAVVNWTSYASSIEALSSGNKEFKGTVFFDEFTFVKLTGVAGNYTVCQKDLCCHLSYKMSENIPNEVYALGAFDGLHTVEGRYYLQICTLLKCKTTNLNTCGDSAETASTRFEMFSLSGTFGTQYVFPEVLLSENQLAPGEFQVSTDGRLFSLKPTSGPVLTVTLFGRLYEKDWASNASSGLTAQARIIMLIVIAPIVCSLSW | 26.6 ± 0.41 | 26.3 ± 2.3 | 5.11 ± 0.53 | 4.83 ± 0.5 | – |
| MNQVTIQWDAVIALYILFSWCHGGITNINCSGHIWVEPATIFKMGMNISIYCQAAIKNCQPRKLHFYKNGIKERFQITRINKTTARLWYKNFLEPHASMYCTAECPKHFQETLICGKDISSGYPPDIPDEVTCVIYEYSGNMTCTWNAGKLTYIDTKYVVHVKSLETEEEQQYLTSSYINISTDSLQGGKKYLVWVQAANALGMEESKQLQIHLDDIVIPSAAVISRAETINATVPKTIIYWDSQTTIEKVSCEMRYKATTNQTWNVKEFDTNFTYVQQSEFYLEPNIKYVFQVRCQETGKRYWQPWSSLFFHKTPETVPQVTSKAFQHDTWNSGLTVASISTGHLTSDNRGDIGLLLGMIVFAVMLSILSLIGIFNRSFRTGIKRRILLLIPKWLYEDIPNMKNSNVVKMLQENSELMNNNSSEQVLYVDPMITEIKEIFIPEHKPTDYKKENTGPLETRDYPQNSLFDNTTVVYIPDLNTGYKPQISNFLPEGSHLSNNNEITSLTLKPPVDSLDSGNNPRLQKHPNFAFSVSSVNSLSNTIFLGELSLILNQGECSSPDIQNSVEEETTMLLENDSPSETIPEQTLLPDEFVSCLGIVNEELPSINTYFPQNILESHFNRISLLEK [Q5VWK5] | 23.7 ± 1.1 | 29.2 ± 0.53 | 6.46 ± 1.6 | 15.8 ± 1.4 | – |
